Numbered stars: 1 amine (or outer) side, 2 acyl side, 3 side chain; on linkers, the order of the positions; unused ones are H or OH. Bridge positions count the residues as written; N and C are the ends. Square brackets hold non-standard residues; d marks the D form. Primed or numbered codes have the meaning given here. bhcLeu = (1R,3S)-3-aminocyclopentane-1-carboxylic acid, O=C([C@@H]1CC[C@H](N[*:1])C1)[*:2]; FX1 = N5-(Pyridin-3-yl)-L-glutamine, O=C(CC[C@H](N[*:1])C(=O)[*:2])Nc1cccnc1; Ala(2-carboxypyrimidin-5-yl) = N[C@@H](Cc1cnc(C(=O)O)nc1)C(=O)O; Trp(βS-Me,7-OMe) = COc1cccc2c([C@H](C)[C@H](N)C(=O)O)c[nH]c12; NEtdA = N-ethyl-D-alanine, CCN([C@H](C)C(=O)[*:2])[*:1]; Trp(βS-Me) = C[C@@H](c1c[nH]c2ccccc12)[C@H](N)C(=O)O; Trp(7-Cl) = N[C@@H](Cc1c[nH]c2c(Cl)cccc12)C(=O)O; Phe(4-CONH2) = NC(=O)c1ccc(C[C@H](N)C(=O)O)cc1; Phe(4-COOH) = N[C@@H](Cc1ccc(C(=O)O)cc1)C(=O)O; Trp(7-aza) = N[C@@H](Cc1c[nH]c2ncccc12)C(=O)O; Phe(4-CH2NH2) = NCc1ccc(C[C@H](N)C(=O)O)cc1; Pip(5R-OH) = O=C(O)[C@@H]1CC[C@@H](O)CN1; αMeW = C[C@](N)(Cc1c[nH]c2ccccc12)C(=O)O; Ala(2-furyl) = N[C@@H](Cc1ccco1)C(=O)O; 2Nal = N[C@@H](Cc1ccc2ccccc2c1)C(=O)O; Val(3-OH) = CC(C)(O)[C@H](N)C(=O)O; Pip(4-aza) = O=C(O)[C@@H]1CNCCN1; 3Pal = N[C@@H](Cc1cccnc1)C(=O)O; 4Pal = N[C@@H](Cc1ccncc1)C(=O)O; NMeE = CN[C@@H](CCC(=O)O)C(=O)O; dHyp = O=C(O)[C@H]1C[C@H](O)CN1; NMeS = CN[C@@H](CO)C(=O)O; αMeS = C[C@](N)(CO)C(=O)O; Nle = CCCC[C@H](N)C(=O)O; Pip2c = not defined here; dNMeA = CN[C@H](C)C(=O)O; Ahp′ = not defined here; Dap = NC[C@H](N)C(=O)O; Sar = CNCC(=O)O
B1: SEQ ID NO. 264 (peptide)
peptide: {CH2CO}-[Nle]H[Pip2c][Trp(7-aza)][NMeE]N[4Pal][Trp(7-Cl)][αMeS][Phe(4-COOH)]Y[Sar][Trp(βS-Me,7-OMe)]C-NH2
modifications: thioether N-14; reading uncertain; also: printed as cyclo(ClAc-Nle-H-Pip2c-Trp7az-NMeE-N-4Pal-Trp7Cl-aMeS-Phe4COOH-Y-Sar-SbMeW7OMe-C)-NH2
B2: SEQ ID NO. 158 (peptide)
peptide: {CH2CO}-[Nle][4Pal][Pip2c][Trp(7-aza)][NMeE]N[4Pal][Trp(7-Cl)][αMeS][Phe(4-COOH)][TyrOCF3][Sar][Trp(βS-Me,7-OMe)]C-NH2
modifications: thioether N-14; reading uncertain; also: printed as cyclo(ClAc-Nle-4Pal-Pip2c-Trp7az-NMeE-N-4Pal-Trp7Cl-aMeS-Phe4COOH-TyrOCF3-Sar-SbMeW7OMe-C)-NH2
B3: SEQ ID NO. 226 (peptide)
peptide: {CH2CO}-[Ahp′]Y[AlaPiperaz][Trp(βS-Me)][dP]N[4Pal][Trp(7-Cl)][αMeS][Phe(4-COOH)][3Pal][Sar][αMeW]C-NH2
modifications: thioether N-14; reading uncertain; also: printed as cyclo(ClAc-Ahp-Y-AlaPiperaz-SbMeW-dP-N-4Pal-Trp7Cl-aMeS-Phe4COOH-3Pal-Sar-aMeW-C)-NH2
B4: SEQ ID NO. 186 (peptide)
peptide: {CH2CO}-[Nle][4Pal][Pip(5R-OH)]W[NEtdA]N[4Pal][Trp(7-Cl)][αMeS][Phe(4-CONH2)]Y[Sar][Trp(βS-Me,7-OMe)]C-NH2
modifications: thioether N-14
SMILES: CCCC[C@@H]1NC(=O)CSC[C@@H](C(N)=O)NC(=O)[C@H]([C@@H](C)c2c[nH]c3c(OC)cccc23)NC(=O)CN(C)C(=O)[C@H](Cc2ccc(O)cc2)NC(=O)[C@H](Cc2ccc(C(N)=O)cc2)NC(=O)[C@](C)(CO)NC(=O)[C@H](Cc2c[nH]c3c(Cl)cccc23)NC(=O)[C@H](Cc2ccncc2)NC(=O)[C@H](CC(N)=O)NC(=O)[C@@H](C)N(CC)C(=O)[C@H](Cc2c[nH]c3ccccc23)NC(=O)[C@@H]2CC[C@@H](O)CN2C(=O)[C@H](Cc2ccncc2)NC1=O
B5: SEQ ID NO. 255 (peptide)
peptide: {CH2CO}-[Nle][4Pal][Pip(4-aza)][Trp(7-aza)][NMeE]N[4Pal][Trp(7-Cl)][αMeS][Phe(4-COOH)]Y[Sar][Trp(βS-Me,7-OMe)]CGEE-NH2
modifications: thioether N-14
SMILES: CCCC[C@@H]1NC(=O)CSC[C@@H](C(=O)NCC(=O)N[C@@H](CCC(=O)O)C(=O)N[C@@H](CCC(=O)O)C(N)=O)NC(=O)[C@H]([C@@H](C)c2c[nH]c3c(OC)cccc23)NC(=O)CN(C)C(=O)[C@H](Cc2ccc(O)cc2)NC(=O)[C@H](Cc2ccc(C(=O)O)cc2)NC(=O)[C@](C)(CO)NC(=O)[C@H](Cc2c[nH]c3c(Cl)cccc23)NC(=O)[C@H](Cc2ccncc2)NC(=O)[C@H](CC(N)=O)NC(=O)[C@H](CCC(=O)O)N(C)C(=O)[C@H](Cc2c[nH]c3ncccc23)NC(=O)[C@@H]2CNCCN2C(=O)[C@H](Cc2ccncc2)NC1=O
B6: SEQ ID NO. 191 (peptide)
peptide: cyclo([bhcLeu][Nle][4Pal][Pip(5R-OH)]W[dHyp]N[Phe(4-COOH)][Trp(7-Cl)][αMeS][Phe(4-CONH2)][Ala(2-carboxypyrimidin-5-yl)][Sar][Trp(βS-Me,7-OMe)])
SMILES: CCCC[C@@H]1NC(=O)[C@@H]2CC[C@@H](C2)NC(=O)[C@H]([C@@H](C)c2c[nH]c3c(OC)cccc23)NC(=O)CN(C)C(=O)[C@H](Cc2cnc(C(=O)O)nc2)NC(=O)[C@H](Cc2ccc(C(N)=O)cc2)NC(=O)[C@](C)(CO)NC(=O)[C@H](Cc2c[nH]c3c(Cl)cccc23)NC(=O)[C@H](Cc2ccc(C(=O)O)cc2)NC(=O)[C@H](CC(N)=O)NC(=O)[C@H]2C[C@H](O)CN2C(=O)[C@H](Cc2c[nH]c3ccccc23)NC(=O)[C@@H]2CC[C@@H](O)CN2C(=O)[C@H](Cc2ccncc2)NC1=O
B7: SEQ ID NO. 237 (peptide)
peptide: {CH2CO}-[Ahp′][4Pal]S[Trp(βS-Me)][dP]N[Phe(4-COOH)][2Nal][αMeS][Phe(4-COOH)]H[Sar][αMeW]C-NH2
modifications: thioether N-14; reading uncertain; also: printed as cyclo(ClAc-Ahp-4Pal-S-SbMeW-dP-N-Phe4COOH-2Nal-aMeS-Phe4COOH-H-Sar-aMeW-C)-NH2
B8: SEQ ID NO. 217 (peptide)
peptide: {CH2CO}-[Nle]H[Val(3-OH)][Trp(7-aza)][NMeE]N[4Pal][Trp(7-Cl)][αMeS][Phe(4-COOH)]Y[Sar][Trp(βS-Me,7-OMe)]C-NH2
modifications: thioether N-14
SMILES: CCCC[C@@H]1NC(=O)CSC[C@@H](C(N)=O)NC(=O)[C@H]([C@@H](C)c2c[nH]c3c(OC)cccc23)NC(=O)CN(C)C(=O)[C@H](Cc2ccc(O)cc2)NC(=O)[C@H](Cc2ccc(C(=O)O)cc2)NC(=O)[C@](C)(CO)NC(=O)[C@H](Cc2c[nH]c3c(Cl)cccc23)NC(=O)[C@H](Cc2ccncc2)NC(=O)[C@H](CC(N)=O)NC(=O)[C@H](CCC(=O)O)N(C)C(=O)[C@H](Cc2c[nH]c3ncccc23)NC(=O)[C@H](C(C)(C)O)NC(=O)[C@H](Cc2c[nH]cn2)NC1=O
B9: SEQ ID NO. 166 (peptide)
peptide: cyclo([bhcLeu][FX1][4Pal][NMeS]W[NMeE]N[4Pal][Trp(7-Cl)][αMeS][Phe(4-COOH)]Y[Sar][Trp(βS-Me,7-OMe)])
SMILES: COc1cccc2c([C@H](C)[C@@H]3NC(=O)CN(C)C(=O)[C@H](Cc4ccc(O)cc4)NC(=O)[C@H](Cc4ccc(C(=O)O)cc4)NC(=O)[C@](C)(CO)NC(=O)[C@H](Cc4c[nH]c5c(Cl)cccc45)NC(=O)[C@H](Cc4ccncc4)NC(=O)[C@H](CC(N)=O)NC(=O)[C@H](CCC(=O)O)N(C)C(=O)[C@H](Cc4c[nH]c5ccccc45)NC(=O)[C@H](CO)N(C)C(=O)[C@H](Cc4ccncc4)NC(=O)[C@H](CCC(=O)Nc4cccnc4)NC(=O)[C@@H]4CC[C@@H](C4)NC3=O)c[nH]c12
B10: SEQ ID NO. 236 (peptide)
peptide: {CH2CO}-[Nle][4Pal][Pip(4-aza)]W[dP]N[Ala(2-furyl)][Trp(7-Cl)][αMeS][Phe(4-COOH)]Y[Sar][Trp(βS-Me,7-OMe)]C-NH2
modifications: thioether N-14
SMILES: CCCC[C@@H]1NC(=O)CSC[C@@H](C(N)=O)NC(=O)[C@H]([C@@H](C)c2c[nH]c3c(OC)cccc23)NC(=O)CN(C)C(=O)[C@H](Cc2ccc(O)cc2)NC(=O)[C@H](Cc2ccc(C(=O)O)cc2)NC(=O)[C@](C)(CO)NC(=O)[C@H](Cc2c[nH]c3c(Cl)cccc23)NC(=O)[C@H](Cc2ccco2)NC(=O)[C@H](CC(N)=O)NC(=O)[C@H]2CCCN2C(=O)[C@H](Cc2c[nH]c3ccccc23)NC(=O)[C@@H]2CNCCN2C(=O)[C@H](Cc2ccncc2)NC1=O
B11: SEQ ID NO. 178 (peptide)
peptide: cyclo([bhcLeu][Nle][4Pal][Pip(4-aza)]W[NMeE]N[4Pal][Trp(7-Cl)][αMeS][Phe(4-COOH)]H[Sar][Trp(βS-Me,7-OMe)])
SMILES: CCCC[C@@H]1NC(=O)[C@@H]2CC[C@@H](C2)NC(=O)[C@H]([C@@H](C)c2c[nH]c3c(OC)cccc23)NC(=O)CN(C)C(=O)[C@H](Cc2c[nH]cn2)NC(=O)[C@H](Cc2ccc(C(=O)O)cc2)NC(=O)[C@](C)(CO)NC(=O)[C@H](Cc2c[nH]c3c(Cl)cccc23)NC(=O)[C@H](Cc2ccncc2)NC(=O)[C@H](CC(N)=O)NC(=O)[C@H](CCC(=O)O)N(C)C(=O)[C@H](Cc2c[nH]c3ccccc23)NC(=O)[C@@H]2CNCCN2C(=O)[C@H](Cc2ccncc2)NC1=O

Target: C'-terminally 6His-tagged human soluble TNFR1 (sTNFR1, residues 1-211) (human)
Test: TR-FRET displacement of biotinylated peptide SEQ ID NO. 1 from sTNFR1-6His

| Binder | IC50 [pM] | Kd^app [pM] |
| --- | --- | --- |
| B1 | 1490 |  |
| {CH2CO}-[Nle][4Pal][NMeS]W[NMeE]N[4Pal][Trp(7-Cl)][αMeS][Phe(4-COOH)][Phe3CONH2][Sar][Trp(βS-Me,7-OMe)]C-NH2 (thioether N-14) [SEQ ID NO. 270] | 550 |  |
| B2 | 1790 |  |
| B3 | 1160 |  |
| B4 | 500 | 420 |
| B5 | 700 | 1010 |
| B6 |  | 180 |
| B7 | 13000 |  |
| {CH2CO}-[Nle][4Pal][Pip2c]W[dP]N[4Pal][Trp(7-Cl)][αMeS][Phe(4-COOH)]Y[dNMeA][Trp(βS-Me,7-OMe)]C-NH2 (thioether N-14; reading uncertain) [SEQ ID NO. 276] | 2410 |  |
| B8 | 1000 | 730 |
| B9 | 500 | 440 |
| {CH2CO}-[LysN3][4Pal][Dap][Trp(βS-Me)][dP]N[4Pal][Trp(7-Cl)][αMeS][Phe(4-COOH)][Phe(4-CH2NH2)][Sar][αMeW]C-NH2 (thioether N-14) [SEQ ID NO. 245] | 950 |  |
| B10 | 900 |  |
| B11 |  | 290 |

Source: patent US20240287138A1, “CYCLIC PEPTIDES FOR INHIBITING TNF RECEPTOR 1 ACTIVITY” (Merck Sharp & Dohme LLC, priority 2023, published 2024)
